Source: patent publication US12295987B2, “Method of using a GIP/GLP1 co-agonist for diabetes” (Eli Lilly and Company, priority 2018, dated 2025)
Numbered stars: 1 amine (or outer) side, 2 acyl side, 3 side chain; on linkers, the order of the positions; unused ones are H or OH. Square brackets hold non-standard residues; d marks the D form. Side chains are listed from the residue outwards. Ends that are not written are not given here. * marks the point of attachment. C20 diacid = O=C(O)CCCCCCCCCCCCCCCCCCC(=O)*; γGlu = O=C(O)[C@H](CCC(=O)[*:2])N[*:1]; AEEA = NCCOCCOCC(=O)O; Aib = CC(C)(N)C(=O)O

Target: T1, human gastric inhibitory peptide receptor (hGIPR) (Homo sapiens, UniProt P48546)
T1 construct: expressed in transfected cells; host or cells: HEK293
T1 sequence (P48546 22-466): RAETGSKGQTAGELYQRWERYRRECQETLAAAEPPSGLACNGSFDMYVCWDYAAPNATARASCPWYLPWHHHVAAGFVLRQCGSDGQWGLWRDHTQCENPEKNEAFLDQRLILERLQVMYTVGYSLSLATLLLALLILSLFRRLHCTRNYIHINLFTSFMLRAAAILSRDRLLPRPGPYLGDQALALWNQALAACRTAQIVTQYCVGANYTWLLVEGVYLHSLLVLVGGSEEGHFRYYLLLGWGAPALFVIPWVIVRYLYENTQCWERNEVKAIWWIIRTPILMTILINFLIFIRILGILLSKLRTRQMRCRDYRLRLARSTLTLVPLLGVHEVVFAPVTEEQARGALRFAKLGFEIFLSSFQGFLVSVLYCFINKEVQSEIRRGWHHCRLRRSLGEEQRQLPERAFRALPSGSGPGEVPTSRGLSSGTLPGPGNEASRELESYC
Assay: cAMP pharmacological functional assay in presence of 0.1% casein, hGIPR
Assay type: cell-based
Settings: ratio of hGIPR to hGLP1R cAMP EC50 ratios

Substance | [hGIPR/hGLP1R] EC50 Ratio
Y-Aib-EGTFTSDYSI-αMeL-LDTK((2-[2-(2-Amino-ethoxy)-ethoxy]-acetyl)2-(γGlu)-CO—(CH2)18—CO2H)AQ-Aib-AFIEYLIEGG-NH2 (YXEGTFTSDYSIXLDTKAQXAFIEYLIEGG; Aib, αMeL; K lipidated C20 diacid-γGlu-AEEA2; C-terminal amide; (2)..(2) Xaa at position 2 is Aib; (13)..(13) Xaa at position 13 is alpha-methyl-Leu; MOD_RES (17)..(17) Lys at position 17 is chemically modified by conjugation of the epsilon-amino group of the Lys side chain with (2-[2-(2-amino-ethoxy)-ethoxy]-acetyl)2-(gamma-Glu)-CO-(CH2)18- CO2H; (20)..(20) Xaa at position 20 is Aib; MOD_RES (30)..(30) Gly at position 30 is amidated) [Peptide 65] | 4.46
Y-Aib-EGTFTSDYSIK((2-[2-(2-Amino-ethoxy)-ethoxy]-acetyl)2-(γGlu)-CO—(CH2)18—CO2H)LDKIAQ-Aib-AFIEYLIEGGPSSGAPPPS-NH2 (Y[Aib]EGTFTSDYSIK([AEEA-AEEA-γGlu-C20 diacid])LDKIAQ[Aib]AFIEYLIEGGPSSGAPPPS-NH2; N-terminus assumed; SMILES CC[C@H](C)[C@H](NC(=O)[C@H](CCCCN)NC(=O)[C@H](CC(=O)O)NC(=O)[C@H](CC(C)C)NC(=O)[C@H](CCCCNC(=O)COCCOCCNC(=O)COCCOCCNC(=O)CC[C@H](NC(=O)CCCCCCCCCCCCCCCCCCC(=O)O)C(=O)O)NC(=O)[C@@H](NC(=O)[C@H](CO)NC(=O)[C@H](Cc1ccc(O)cc1)NC(=O)[C@H](CC(=O)O)NC(=O)[C@H](CO)NC(=O)[C@@H](NC(=O)[C@H](Cc1ccccc1)NC(=O)[C@@H](NC(=O)CNC(=O)[C@H](CCC(=O)O)NC(=O)C(C)(C)NC(=O)[C@@H](N)Cc1ccc(O)cc1)[C@@H](C)O)[C@@H](C)O)[C@@H](C)CC)C(=O)N[C@@H](C)C(=O)N[C@@H](CCC(N)=O)C(=O)NC(C)(C)C(=O)N[C@@H](C)C(=O)N[C@@H](Cc1ccccc1)C(=O)N[C@H](C(=O)N[C@@H](CCC(=O)O)C(=O)N[C@@H](Cc1ccc(O)cc1)C(=O)N[C@@H](CC(C)C)C(=O)N[C@H](C(=O)N[C@@H](CCC(=O)O)C(=O)NCC(=O)NCC(=O)N1CCC[C@H]1C(=O)N[C@@H](CO)C(=O)N[C@@H](CO)C(=O)NCC(=O)N[C@@H](C)C(=O)N1CCC[C@H]1C(=O)N1CCC[C@H]1C(=O)N1CCC[C@H]1C(=O)N[C@@H](CO)C(N)=O)[C@@H](C)CC)[C@@H](C)CC) [Peptide 26] | 2.46
Y-Aib-EGTFTSDYSILLDK((2-[2-(2-Amino-ethoxy)-ethoxy]-acetyl)2-(γGlu)-CO—(CH2)18—CO2H)IAQ-Aib-AFIEYLIEGGPSSGAPPPS-NH2 (Y[Aib]EGTFTSDYSILLDK([AEEA-AEEA-γGlu-C20 diacid])IAQ[Aib]AFIEYLIEGGPSSGAPPPS-NH2; N-terminus assumed; SMILES CC[C@H](C)[C@H](NC(=O)[C@H](CCCCNC(=O)COCCOCCNC(=O)COCCOCCNC(=O)CC[C@H](NC(=O)CCCCCCCCCCCCCCCCCCC(=O)O)C(=O)O)NC(=O)[C@H](CC(=O)O)NC(=O)[C@H](CC(C)C)NC(=O)[C@H](CC(C)C)NC(=O)[C@@H](NC(=O)[C@H](CO)NC(=O)[C@H](Cc1ccc(O)cc1)NC(=O)[C@H](CC(=O)O)NC(=O)[C@H](CO)NC(=O)[C@@H](NC(=O)[C@H](Cc1ccccc1)NC(=O)[C@@H](NC(=O)CNC(=O)[C@H](CCC(=O)O)NC(=O)C(C)(C)NC(=O)[C@@H](N)Cc1ccc(O)cc1)[C@@H](C)O)[C@@H](C)O)[C@@H](C)CC)C(=O)N[C@@H](C)C(=O)N[C@@H](CCC(N)=O)C(=O)NC(C)(C)C(=O)N[C@@H](C)C(=O)N[C@@H](Cc1ccccc1)C(=O)N[C@H](C(=O)N[C@@H](CCC(=O)O)C(=O)N[C@@H](Cc1ccc(O)cc1)C(=O)N[C@@H](CC(C)C)C(=O)N[C@H](C(=O)N[C@@H](CCC(=O)O)C(=O)NCC(=O)NCC(=O)N1CCC[C@H]1C(=O)N[C@@H](CO)C(=O)N[C@@H](CO)C(=O)NCC(=O)N[C@@H](C)C(=O)N1CCC[C@H]1C(=O)N1CCC[C@H]1C(=O)N1CCC[C@H]1C(=O)N[C@@H](CO)C(N)=O)[C@@H](C)CC)[C@@H](C)CC) [Peptide 29] | 7.99
Y-Aib-EGTFTSDYSILLDKIAK((2-[2-(2-Amino-ethoxy)-ethoxy]-acetyl)2-(γGlu)-CO—(CH2)18—CO2H)-Aib-AFIEYLIEGGPSSGAPPPS-NH2 (Y[Aib]EGTFTSDYSILLDKIAK([AEEA-AEEA-γGlu-C20 diacid])[Aib]AFIEYLIEGGPSSGAPPPS-NH2; N-terminus assumed; SMILES CC[C@H](C)[C@H](NC(=O)[C@H](CCCCN)NC(=O)[C@H](CC(=O)O)NC(=O)[C@H](CC(C)C)NC(=O)[C@H](CC(C)C)NC(=O)[C@@H](NC(=O)[C@H](CO)NC(=O)[C@H](Cc1ccc(O)cc1)NC(=O)[C@H](CC(=O)O)NC(=O)[C@H](CO)NC(=O)[C@@H](NC(=O)[C@H](Cc1ccccc1)NC(=O)[C@@H](NC(=O)CNC(=O)[C@H](CCC(=O)O)NC(=O)C(C)(C)NC(=O)[C@@H](N)Cc1ccc(O)cc1)[C@@H](C)O)[C@@H](C)O)[C@@H](C)CC)C(=O)N[C@@H](C)C(=O)N[C@@H](CCCCNC(=O)COCCOCCNC(=O)COCCOCCNC(=O)CC[C@H](NC(=O)CCCCCCCCCCCCCCCCCCC(=O)O)C(=O)O)C(=O)NC(C)(C)C(=O)N[C@@H](C)C(=O)N[C@@H](Cc1ccccc1)C(=O)N[C@H](C(=O)N[C@@H](CCC(=O)O)C(=O)N[C@@H](Cc1ccc(O)cc1)C(=O)N[C@@H](CC(C)C)C(=O)N[C@H](C(=O)N[C@@H](CCC(=O)O)C(=O)NCC(=O)NCC(=O)N1CCC[C@H]1C(=O)N[C@@H](CO)C(=O)N[C@@H](CO)C(=O)NCC(=O)N[C@@H](C)C(=O)N1CCC[C@H]1C(=O)N1CCC[C@H]1C(=O)N1CCC[C@H]1C(=O)N[C@@H](CO)C(N)=O)[C@@H](C)CC)[C@@H](C)CC) [Peptide 31] | 6.44
Y-Aib-EGTFTSDYSILLDKIAQ-Aib-AFIEYLIEGGPK((2-[2-(2-Amino-ethoxy)-ethoxy]-acetyl)2-(γGlu)-CO—(CH2)18—CO2H)SGAPPPS-NH2 (Y[Aib]EGTFTSDYSILLDKIAQ[Aib]AFIEYLIEGGPK([AEEA-AEEA-γGlu-C20 diacid])SGAPPPS-NH2; N-terminus assumed; SMILES CC[C@H](C)[C@H](NC(=O)[C@H](CCCCN)NC(=O)[C@H](CC(=O)O)NC(=O)[C@H](CC(C)C)NC(=O)[C@H](CC(C)C)NC(=O)[C@@H](NC(=O)[C@H](CO)NC(=O)[C@H](Cc1ccc(O)cc1)NC(=O)[C@H](CC(=O)O)NC(=O)[C@H](CO)NC(=O)[C@@H](NC(=O)[C@H](Cc1ccccc1)NC(=O)[C@@H](NC(=O)CNC(=O)[C@H](CCC(=O)O)NC(=O)C(C)(C)NC(=O)[C@@H](N)Cc1ccc(O)cc1)[C@@H](C)O)[C@@H](C)O)[C@@H](C)CC)C(=O)N[C@@H](C)C(=O)N[C@@H](CCC(N)=O)C(=O)NC(C)(C)C(=O)N[C@@H](C)C(=O)N[C@@H](Cc1ccccc1)C(=O)N[C@H](C(=O)N[C@@H](CCC(=O)O)C(=O)N[C@@H](Cc1ccc(O)cc1)C(=O)N[C@@H](CC(C)C)C(=O)N[C@H](C(=O)N[C@@H](CCC(=O)O)C(=O)NCC(=O)NCC(=O)N1CCC[C@H]1C(=O)N[C@@H](CCCCNC(=O)COCCOCCNC(=O)COCCOCCNC(=O)CC[C@H](NC(=O)CCCCCCCCCCCCCCCCCCC(=O)O)C(=O)O)C(=O)N[C@@H](CO)C(=O)NCC(=O)N[C@@H](C)C(=O)N1CCC[C@H]1C(=O)N1CCC[C@H]1C(=O)N1CCC[C@H]1C(=O)N[C@@H](CO)C(N)=O)[C@@H](C)CC)[C@@H](C)CC) [Peptide 41] | 10.00
Y-Aib-EGTFTSDYSILLDKIAQ-Aib-AFIEYLIEGGPSSGAPK((2-[2-(2-Amino-ethoxy)-ethoxy]-acetyl)2-(γGlu)-CO—(CH2)18—CO2H)PS-NH2 (Y[Aib]EGTFTSDYSILLDKIAQ[Aib]AFIEYLIEGGPSSGAPK([AEEA-AEEA-γGlu-C20 diacid])PS-NH2; N-terminus assumed; SMILES CC[C@H](C)[C@H](NC(=O)[C@H](CCCCN)NC(=O)[C@H](CC(=O)O)NC(=O)[C@H](CC(C)C)NC(=O)[C@H](CC(C)C)NC(=O)[C@@H](NC(=O)[C@H](CO)NC(=O)[C@H](Cc1ccc(O)cc1)NC(=O)[C@H](CC(=O)O)NC(=O)[C@H](CO)NC(=O)[C@@H](NC(=O)[C@H](Cc1ccccc1)NC(=O)[C@@H](NC(=O)CNC(=O)[C@H](CCC(=O)O)NC(=O)C(C)(C)NC(=O)[C@@H](N)Cc1ccc(O)cc1)[C@@H](C)O)[C@@H](C)O)[C@@H](C)CC)C(=O)N[C@@H](C)C(=O)N[C@@H](CCC(N)=O)C(=O)NC(C)(C)C(=O)N[C@@H](C)C(=O)N[C@@H](Cc1ccccc1)C(=O)N[C@H](C(=O)N[C@@H](CCC(=O)O)C(=O)N[C@@H](Cc1ccc(O)cc1)C(=O)N[C@@H](CC(C)C)C(=O)N[C@H](C(=O)N[C@@H](CCC(=O)O)C(=O)NCC(=O)NCC(=O)N1CCC[C@H]1C(=O)N[C@@H](CO)C(=O)N[C@@H](CO)C(=O)NCC(=O)N[C@@H](C)C(=O)N1CCC[C@H]1C(=O)N[C@@H](CCCCNC(=O)COCCOCCNC(=O)COCCOCCNC(=O)CC[C@H](NC(=O)CCCCCCCCCCCCCCCCCCC(=O)O)C(=O)O)C(=O)N1CCC[C@H]1C(=O)N[C@@H](CO)C(N)=O)[C@@H](C)CC)[C@@H](C)CC) [Peptide 46] | 8.54
